Experimental data published in patent EP4785956A2 (CHUGAI SEIYAKU KABUSHIKI KAISHA, dated 2026).

T1: recombinant cynomolgus monkey C5 (cynomolgus monkey, UniProt P01031 19-1676 (human entry), limits assumed)
T1 construct: also called cynoC5
T1 chain: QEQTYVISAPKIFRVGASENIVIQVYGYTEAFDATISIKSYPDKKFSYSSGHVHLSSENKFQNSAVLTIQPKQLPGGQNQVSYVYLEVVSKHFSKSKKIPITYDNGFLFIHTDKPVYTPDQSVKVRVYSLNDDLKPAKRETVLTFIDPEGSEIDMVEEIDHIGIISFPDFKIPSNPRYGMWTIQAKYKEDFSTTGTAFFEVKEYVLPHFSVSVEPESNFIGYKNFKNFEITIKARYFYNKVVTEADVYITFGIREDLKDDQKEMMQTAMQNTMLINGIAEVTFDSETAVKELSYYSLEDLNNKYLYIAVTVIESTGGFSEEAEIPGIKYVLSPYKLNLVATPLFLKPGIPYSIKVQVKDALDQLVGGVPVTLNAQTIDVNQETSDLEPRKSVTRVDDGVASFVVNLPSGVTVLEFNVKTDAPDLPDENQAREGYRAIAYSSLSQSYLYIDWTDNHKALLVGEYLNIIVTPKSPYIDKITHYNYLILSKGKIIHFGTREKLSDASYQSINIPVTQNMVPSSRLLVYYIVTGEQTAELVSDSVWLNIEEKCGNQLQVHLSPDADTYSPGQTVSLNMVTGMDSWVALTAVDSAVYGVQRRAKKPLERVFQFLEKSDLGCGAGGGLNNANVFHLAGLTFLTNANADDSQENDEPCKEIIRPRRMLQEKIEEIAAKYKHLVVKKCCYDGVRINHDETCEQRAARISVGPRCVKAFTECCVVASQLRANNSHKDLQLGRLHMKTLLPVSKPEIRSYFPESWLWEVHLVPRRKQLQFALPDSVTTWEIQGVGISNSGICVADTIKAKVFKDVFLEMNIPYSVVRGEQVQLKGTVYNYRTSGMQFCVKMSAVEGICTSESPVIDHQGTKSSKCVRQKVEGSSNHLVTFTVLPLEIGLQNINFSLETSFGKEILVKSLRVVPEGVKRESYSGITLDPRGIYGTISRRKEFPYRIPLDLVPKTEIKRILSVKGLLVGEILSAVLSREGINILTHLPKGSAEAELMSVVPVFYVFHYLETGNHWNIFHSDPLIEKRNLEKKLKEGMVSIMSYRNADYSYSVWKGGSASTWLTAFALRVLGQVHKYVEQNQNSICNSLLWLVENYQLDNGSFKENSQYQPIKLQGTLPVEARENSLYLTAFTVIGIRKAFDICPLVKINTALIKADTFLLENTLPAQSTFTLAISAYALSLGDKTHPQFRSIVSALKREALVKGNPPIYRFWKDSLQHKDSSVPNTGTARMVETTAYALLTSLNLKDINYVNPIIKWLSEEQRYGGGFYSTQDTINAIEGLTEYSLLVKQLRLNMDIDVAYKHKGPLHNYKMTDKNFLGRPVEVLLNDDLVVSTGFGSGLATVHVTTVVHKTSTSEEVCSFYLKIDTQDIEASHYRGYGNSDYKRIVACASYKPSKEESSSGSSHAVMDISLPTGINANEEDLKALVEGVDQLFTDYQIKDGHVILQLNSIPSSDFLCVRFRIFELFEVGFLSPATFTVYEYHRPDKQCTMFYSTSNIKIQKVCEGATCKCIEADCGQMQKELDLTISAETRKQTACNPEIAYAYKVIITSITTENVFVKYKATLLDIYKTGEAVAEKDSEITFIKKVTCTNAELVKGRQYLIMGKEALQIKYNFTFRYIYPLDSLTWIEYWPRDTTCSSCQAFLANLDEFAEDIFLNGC


Legend:
[1] = biological target: T1, recombinant cynomolgus monkey C5; assay: SPR (BIACORE T200), antibody captured by ProA/G, recombinant cynoC5 injected, 37 degrees C, pH7.4
[2] = biological target: T2, recombinant human C5 (human, UniProt P01031 20-1676); assay: SPR (BIACORE T200), antibody captured by ProA/G, recombinant human C5 injected, 37 degrees C, pH7.4; pH 7.4
T2 construct: The same entry is used here for C5 in normal human serum in the functional rows; also called hC5; rhC5

[3] = biological target: T2, recombinant human C5; assay: SPR (BIACORE T200), antibody captured by ProA/G, recombinant human C5 injected, 37 degrees C, pH5.8; pH 5.8
[4] = biological target: T2, recombinant human C5; assay: SPR (BIACORE T200), ratio of kd of condition (2) and (1)

| koff [1] [s⁻¹] | kon [1] [M⁻¹ s⁻¹] | koff [2] [s⁻¹] | kon [2] [M⁻¹ s⁻¹] | koff [3] [s⁻¹] | kon [3] [M⁻¹ s⁻¹] | pH dependency (ratio of dissociation rate at pH5.8 to that at pH7.4) [4] | Binder |
| --- | --- | --- | --- | --- | --- | --- | --- |
| 0.00067 | 12100 | 0.000589 | 38200 | 0.0183 | 42700 |  | CFA0305 (antibody, V domains shown) VH: QSLEESGGDLVKPGASLAVTCTASGFSSSSSYYMCWVRQAPGKGLEWIGCIYTGSGATYYASWAKGRFTISKTSSTTVTLQMTSLTVADTATYFCASDGGYVTPTHAMYLWGPGTLVTVSS VL: DVVMTQTPASVSAAVGGTVTIKCQASQNIGSDLAWYQQKPGQPPRLLIYGASKLASGVSSRFSGSGSGKEFTLTISDLECADAVTYYCQCTFVGSSYGNAFGGGTEVVVK |
|  |  |  |  |  |  | 17.5 | 305LO20-SG115 (antibody) heavy: QVQLVESGGGLVQPGGSLRLSCAASGFTVHSSYYMAWVRQAPGKGLEWVGAIFTGSGAEYKAEWAKGRVTISKDTSKNQVVLTMTNMDPVDTATYYCASDAGYDYPTHAMHYWGQGTLVTVSSASTKGPSVFPLAPSSKSTSGGTAALGCLVKDYFPEPVTVSWNSGALTSGVHTFPAVLQSSGLYSLSSVVTVPSSSLGTQTYICNVNHKPSNTKVDKKVEPKSCDKTHTCPPCPAPELRRGPKVFLFPPKPKDTLMISRTPEVTCVVVDVSHEDPEVKFNWYVDGVEVHNAKTKPREEQYNSTYRVVSVLTVLHQDWLNGKEYKCKVSNKGLPSSIEKTISKAKGQPREPQVYTLPPSREEMTKNQVSLTCLVKGFYPSDIAVEWESNGQPENNYKTTPPVLDSDGSFFLYSKLTVDKSRWQQGNVFSCSVLHEALHAHYTRKELSLSP light: DIQMTQSPSSLSASVGDRVTITCRASQGISSSLAWYQQKPGQAPRLLIYGASETESGVPSRFSGSGSGTDFTLTISSLQPEDFATYYCQNTKVGSSYGNTFGGGTKVEIKRTVAAPSVFIFPPSDEQLKSGTASVVCLLNNFYPREAKVQWKVDNALQSGNSQESVTEQDSKDSTYSLSSTLTLSKADYEKHKVYACEVTHQGLSSPVTKSFNRGEC |
| 0.00185 | 641000 | 0.000183 | 523000 | 0.00978 | 71100 |  | CFA0672 (antibody, V domains shown) VH: QSVEESGGRLVTPGTPLTLTCTASGFSLSGNAINWVRQAPGKGLEWIGCIYTGSDTTYYATWAKGRFTISKTSTTVDLKIASPTTEDTATYFCARGSGLWGPGTLVTVSS VL: DVVMTQTPASVSAPVGGTVTIKCQASQNIYSLLAWYQQKPGQPPKLLIYHTSDLASGVPSRFRGSGSGTEFTLTISDLECADAATYYCQCTAYGSSDVGGTFGGGTTVVVE |
| 0.00223 | 290000 | 0.00263 | 324000 | 0.0334 | 204000 |  | CFA0307 (antibody, V domains shown) VH: QSLEESGGGLVKPGASLTLTCKASGIDFSNFYYICWVRQAPGKGLDLIACIYTVSGYTYYASWAKGRLTISKTSSTTVTLQMTSLTAADTATYFCARDLHAGITNLWGPGTLVTVSS VL: AIEMTQTPFSVSAAVGGTVTIKCQASQNIYSNLAWYQQKPGQRPKLLIYGASNLESGVPSRFKGSGSGTEYTLTISDLECADAATYYCLQGYSYSNVDDAFGGGTEVVVK |
| 0.00156 | 266000 | 0.00169 | 474000 | 0.0262 | 150000 |  | CFA0501 (antibody, V domains shown) VH: QSVEESGGRLVTPGTPLTLTCTASGFSLSSYYMNWVRQAPGKGLEWIGMIYGSGATYYASWAKGRFTISKTSSTTVDLKMTSLTTEDTATYFCARQIYSGDNNDNFWGPGTLVTVSS VL: AYDMTQTPASVEVAVGGTVTINCQASESISNWLAWYQQKPGQRPKLLIYRASTLASGVSSRFKGSGSGTQFTLTISGVECDDAATYYCQQDYSSSNVDNTFGGGTKVVVE |
| 0.00166 | 305000 | 0.00185 | 473000 | 0.0301 | 122000 |  | CFA0538 (antibody, V domains shown) VH: QSVEESGGRLVTPGTPLTLTCTASGFSLSSYYMNWVRQAPGKGLEWIGMIYGSGATYYASWAKGRFTISKTSSTTVDLKMTSLTTEDTATYFCARQIYSGDNNDNFWGPGTLVTVSS VL: AYDMTQTPASVEVAVGGTVTINCQASESISNWLAWYQQKPGQRPKLLIYRASTLASGVSSRFKGSGSGTQFTLTISGVECDDAATYYCQQDYSSSNVDNTFGGGTTVVVE |
|  |  |  |  |  |  | 21.1 | 305LO16-SG422 (antibody, V domains shown) VH: QVQLVESGGGLVQPGRSLRLSCAASGFTVHSSYYMAWVRQAPGKGLEWVGAIFTGSGAEYKAEWVKGRFTISRDNSKNTLYLQMNSLRAEDTAVYYCASDAGYDYPTHAMHYWGRGTLVTVSS VL: DIQMTQSPSSLSASVGDRVTITCRASQGISSSLAWYQQKPGKAPKLLIYGASETESGVPSRFSGSGSGTDFTLTISSLQPEDFATYYCQNTKVGSSYGNTFGGGTKVEIKR |
| 0.00235 | 542000 | 0.00281 | 474000 | 0.0373 | 454000 |  | CFA0599 (antibody, V domains shown) VH: QSVEESGGRLVTPGTPLTLTCTVSGLSLSDNTMTWVRQAPGKGLEWIGIISFGGDAYYASWAKGRFPISKTSTTVDLRITSPTTEDTATYFCARVGAGNIFWYFDLWGPGTLVTVSS VL: AYDMTQTPASVEVSVGGTVTIKCQASESIYSALAWYQQKPGQPPKLLIYSASTLASGVPSRFKGSGSGTEYTLTISDLECADAATYYCQQYYSSTNVHNSFGGGTTVVVE |
| 0.00904 | 504000 | 0.00934 | 1.04e+06 | 0.0703 | 935000 |  | CFA0366 (antibody, V domains shown) VH: QSLEESGGDLVKPGASLSLTCTAAGLDFSSSYYMCWVRQAPGKGLEWIACIYAGSSGIIYYANWAKGRFTISRPSSTTVTLQMTSLTAADTATYFCATYPTYGDGGHAFNLWGPGTLVTVSS VL: AQVLTQTPSSVSAAVGGTVTINCQSSQSVYSSDYLSWYQQKPGQPPKLLIYEASKLASGVPPRFSGSGSGTQFTLTISGVQCDDAATYYCQGTYYSSGWYFAFGGGTEVVVK |
| 0.000493 | 314000 | 0.000626 | 365000 | 0.00939 | 282000 |  | CFA0666 (antibody, V domains shown) VH: QSVEESGGRLVTPGTPLTLTCTVSGFSLSTYAMGWVRQAPGKGLEWIGTIDTGDNSFYANWAKGRFTISKTSTTVDLKITSPTAEDTATYFCARNDGSVYNLFNLWGPGTLVTVSS VL: DVVMTQTPASVSAAVGGTVTIKCQASENIYSALSWYQQKPGLRPRLLIYYASTLASGVPSRFKGSRSGTEFTLTISDLECADAATYYCQQYYDINSVDNTFGGGTKVVVE |
| 0.000378 | 294000 | 0.000412 | 383000 | 0.00661 | 389000 |  | CFA0675 (antibody, V domains shown) VH: QSVEESGGRLVTPGTPLTLTCTVSGFSLSTYAMGWVRQAPGKGLEWIGTIDTGDNSFYANWAKGRFTISRTSTTVDLKITSPTAEDTATYFCARNDGSVYNLFNLWGPGTLVTVSS VL: DVVMTQTPASVSAAVGGTVTIKCQASENIYSALSWYQQKPGLRPRLLIYYASTLASGVPSRFKGSRSGTEFTLTISDLECADAASYYCQQYYDINSVDNTFGGGTKVVVE |
